According to PMC6158212:

Target: GP ectodomain of EBOV strain Mayinga-76 with a deleted mucin-like domain (EBOV GPΔMuc) (Zaire EBOV strain Mayinga-76)
Assay: crystal structure

GP ectodomain of EBOV strain Mayinga-76 with a deleted mucin-like domain (EBOV GPΔMuc) (complex)
stoichiometry N: 3
